Key:
Experiment in all cases: cell-based or functional assay
[1] = target: T1, RSV protein F of strain A2 (RSV A2 (ATCC number VR-1540), UniProt P03420 26-574)
[2] = target: T2, RSV protein F of strain Long (RSV Long (ATCC number VR-26), UniProt P12568 26-574)
[3] = target: T3, RSV protein F of strain B Wash/18537 (RSV B Wash/18537 (ATCC number VR-1580), UniProt P13843 26-574)
[4] = target: T1, RSV protein F of strain A2; remark: listed apart in the source
[5] = target: T2, RSV protein F of strain Long; remark: listed apart in the source
[6] = target: T3, RSV protein F of strain B Wash/18537; remark: listed apart in the source

T2 sequence (P12568 26-574): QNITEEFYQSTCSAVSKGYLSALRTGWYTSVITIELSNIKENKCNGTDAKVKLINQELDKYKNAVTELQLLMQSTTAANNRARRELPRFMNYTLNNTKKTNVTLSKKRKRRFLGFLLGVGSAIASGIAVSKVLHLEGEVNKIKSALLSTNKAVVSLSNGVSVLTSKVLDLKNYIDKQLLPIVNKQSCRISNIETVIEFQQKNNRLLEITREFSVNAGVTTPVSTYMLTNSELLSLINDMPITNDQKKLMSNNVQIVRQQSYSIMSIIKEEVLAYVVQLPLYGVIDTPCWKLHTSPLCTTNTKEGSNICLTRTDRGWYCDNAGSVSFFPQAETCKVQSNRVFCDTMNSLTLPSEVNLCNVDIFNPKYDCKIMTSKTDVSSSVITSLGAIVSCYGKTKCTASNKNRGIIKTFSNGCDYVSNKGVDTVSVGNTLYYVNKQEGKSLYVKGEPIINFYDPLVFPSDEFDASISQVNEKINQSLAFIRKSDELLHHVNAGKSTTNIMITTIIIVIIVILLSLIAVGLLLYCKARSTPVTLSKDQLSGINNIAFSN
T1 sequence (P03420 26-574): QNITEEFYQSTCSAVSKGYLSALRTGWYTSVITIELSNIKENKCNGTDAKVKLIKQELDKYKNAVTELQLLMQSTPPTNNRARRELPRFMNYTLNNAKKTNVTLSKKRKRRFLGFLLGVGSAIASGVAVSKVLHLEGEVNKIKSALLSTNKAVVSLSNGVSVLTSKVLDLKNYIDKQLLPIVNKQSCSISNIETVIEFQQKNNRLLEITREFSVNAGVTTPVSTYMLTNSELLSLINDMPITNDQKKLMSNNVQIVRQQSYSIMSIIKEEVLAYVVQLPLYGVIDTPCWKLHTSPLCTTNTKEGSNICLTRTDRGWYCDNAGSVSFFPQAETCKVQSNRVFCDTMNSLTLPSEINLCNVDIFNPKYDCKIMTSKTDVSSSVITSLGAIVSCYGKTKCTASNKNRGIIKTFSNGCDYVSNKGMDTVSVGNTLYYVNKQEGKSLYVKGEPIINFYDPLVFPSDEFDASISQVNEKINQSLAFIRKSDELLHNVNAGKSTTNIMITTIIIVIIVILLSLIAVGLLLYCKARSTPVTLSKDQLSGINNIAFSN
T3 sequence (P13843 26-574): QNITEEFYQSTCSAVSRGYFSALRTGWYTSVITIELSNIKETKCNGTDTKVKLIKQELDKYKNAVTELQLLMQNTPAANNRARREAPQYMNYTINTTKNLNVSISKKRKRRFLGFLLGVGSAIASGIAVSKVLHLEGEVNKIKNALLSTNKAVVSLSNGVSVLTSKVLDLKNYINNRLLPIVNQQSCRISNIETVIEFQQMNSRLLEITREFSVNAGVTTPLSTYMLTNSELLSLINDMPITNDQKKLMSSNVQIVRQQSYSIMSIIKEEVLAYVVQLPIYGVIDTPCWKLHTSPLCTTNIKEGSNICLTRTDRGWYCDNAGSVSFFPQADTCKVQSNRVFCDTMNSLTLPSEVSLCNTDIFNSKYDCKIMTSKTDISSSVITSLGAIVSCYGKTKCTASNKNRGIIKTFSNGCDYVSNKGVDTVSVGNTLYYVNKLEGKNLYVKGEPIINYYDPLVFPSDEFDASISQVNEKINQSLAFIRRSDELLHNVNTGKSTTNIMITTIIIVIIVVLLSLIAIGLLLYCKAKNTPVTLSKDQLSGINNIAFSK

B1: Palivizumab (Synagis) (antibody, V domains shown)
VH: QVTLRESGPALVKPTQTLTLTCTFSGFSLSTSGMSVGWIRQPPGKALEWLADIWWDDKKDYNPSLKSRLTISKDTSKNQVVLKVTNMDPADTATYYCARSMITNWYFDVWGAGTTVTVSS
VL: DIQMTQSPSTLSASVGDRVTITCKCQLSVGYMHWYQQKPGKAPKLLIYDTSKLASGVPSRFSGSGSGTEFTLTISSLQPDDFATYYCFQGSGYPFTFGGGTKLEIK
[1]
  PRNT EC50 with complement, RSV A2: 0.15 µg/mL
[2]
  PRNT EC50 with complement, RSV Long: 0.14 µg/mL
[3]
  PRNT EC50 with complement, RSV 18537: 0.2 µg/mL
[4]
  EC50 value (µg/ml), PRNT (plaque reduction neutralization) against RSV strain A2: 0.15 µg/mL
[5]
  EC50 value (µg/ml), PRNT (plaque reduction neutralization) against RSV strain Long: 0.14 µg/mL
[6]
  EC50 value (µg/ml), PRNT (plaque reduction neutralization) against RSV strain 18537: 0.2 µg/mL

Source: US20090137003A1 (SYMPHOGEN A S, published 2009)
